This note sets out measurements from paper PMC4751364, “Mitotic Activation of a Novel Histone Deacetylase 3-Linker Histone H1.3 Protein Complex by Protein Kinase CK2*” (The Journal of Biological Chemistry, 2015).

The target of this assay is T1, Human recombinant HDAC3 (human, UniProt O15379 1-428).
T1 construct: human recombinant HDAC3 (Biomol); No catalogue number, host or tag is printed for the bought protein; also called recombinant human HDAC3; source: bought: Biomol
In words: pull-down; recombinant HDAC3 (8 ug) incubated with recombinant H1.3 (4 ug), overnight at 4 C; pulled down with anti-HDAC3 antibody and protein A/G-agarose; SDS-PAGE, Coomassie staining. Particulars: both partners purified.

T1 sequence (O15379 whole entry): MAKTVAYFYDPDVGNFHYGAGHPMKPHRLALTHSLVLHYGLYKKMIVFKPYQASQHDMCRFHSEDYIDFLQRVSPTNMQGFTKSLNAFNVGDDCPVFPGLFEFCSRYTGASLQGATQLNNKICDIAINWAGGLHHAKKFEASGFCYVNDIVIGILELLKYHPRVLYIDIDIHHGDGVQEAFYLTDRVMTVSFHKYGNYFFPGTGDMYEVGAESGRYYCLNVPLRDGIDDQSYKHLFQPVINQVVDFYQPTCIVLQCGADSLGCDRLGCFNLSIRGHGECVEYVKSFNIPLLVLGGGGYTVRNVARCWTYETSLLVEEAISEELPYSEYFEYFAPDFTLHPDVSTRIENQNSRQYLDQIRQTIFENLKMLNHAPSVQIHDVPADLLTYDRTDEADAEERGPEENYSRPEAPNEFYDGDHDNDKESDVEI

B1: Human recombinant H1.3 (natural protein, UniProt P16402 1-221, looked up)
chain: MSETAPLAPTIPAPAEKTPVKKKAKKAGATAGKRKASGPPVSELITKAVAASKERSGVSLAALKKALAAAGYDVEKNNSRIKLGLKSLVSKGTLVQTKGTGASGSFKLNKKAASGEGKPKAKKAGAAKPRKPAGAAKKPKKVAGAATPKKSIKKTPKKVKKPATAAGTKKVAKSAKKVKTPQPKKAAKSPAKAKAPKPKAAKPKSGKPKVTKAKKAAPKKK
notes: human recombinant histone H1.3 (Alexis Biochemicals); No catalogue number, host or tag is printed for the bought protein; also called recombinant human histone H1.3; source: bought: Alexis Biochemicals
B1: the binding result is “binds”.
